The series has as its system ATP. Briefly: switch fluorescence ratio, 500 uM ATP over buffer (Cy3 cluster intensity, sum of 5 cycles each) (fold (ratio)); higher = stronger signal-on switching upon ATP binding; sequences stand for … in TCGTCGGCAGCGTCAGATGTGTATAAGAGACAGTTTTTTTTTTTTTTTTTTTTTTTTT…TC. The following applies: aptamer strand: ATP DNA aptamer (quencher-CACCTGGGGGAGTATTGCGGAGGAAGG + anchor), 100 nM annealed; ATP concentration: 500 uM. The method, boiled down:
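Clusters with intensities outside 100-1000 RFU were excluded. The remaining Cy3-labelled switching-strand clusters on a modified Illumina MiSeq flow-cell had been annealed to 100 nM quencher-labelled ATP aptamer and imaged in selection buffer, then after 15 min with 500 uM ATP at 22 °C, for five cycles separated by NaOH stripping and re-annealing. The fluorescence ratio, averaged per switch-domain sequence, is each cluster's summed target-cycle Cy3 intensity over its summed buffer-cycle Cy3 intensity.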

± gives the standard deviation of the averaged measurements.
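Note: ATP exposure 15 min at 22 °C before imaging.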

Turning to TTTATCGGCT, the switch fluorescence ratio was found to be 1.06 ± 0.078.

Regarding TTTATCGGGG, the switch fluorescence ratio worked out at 0.988 ± 0.011. With TTTATCGGTG the figure was 0.995 ± 0.035; with TTTATCTATT, 1 ± 0.012. With TTTATCTTCC the figure was 2.41 ± 0.065. Under TTTATCTTCG stands 1.04 ± 0.017; under TTTATGAAGA, 0.985 ± 0.027; under TTTATGAATT, 1.03 ± 0.019. TTTATGACAT: the switch fluorescence ratio amounted to 0.971 ± 0.029. In the case of TTTATGAGCA, the switch fluorescence ratio is 0.998 ± 0.035. As for TTTATGAGGT, the switch fluorescence ratio came to 0.999 ± 0.02. For the sequence TTTATGCGGG, the switch fluorescence ratio came to 1.02 ± 0.048. Under TTTATGCTTG stands 0.974 ± 0.044; under TTTATGGAGA, 0.998 ± 0.015. Consider TTTATGGCAT, for which the switch fluorescence ratio turned out to be 1.02 ± 0.027. With TTTATGGCCC the figure was 1.01 ± 0.064; with TTTATGGGGT, 1.01 ± 0.028; with TTTATGGTGG, 1.01 ± 0.013. Under TTTATGTAGG stands 0.9887 ± 0.0044. Under TTTATGTATG stands 1.02 ± 0.034.

On to TTTATTAATT, for which the switch fluorescence ratio was determined as 1 ± 0.029. Under TTTATTAGCT stands 1.02 ± 0.043; under TTTATTAGGG, 0.975 ± 0.021; under TTTATTATTG, 0.989 ± 0.035. Take TTTATTCCTT: the switch fluorescence ratio worked out at 1.02 ± 0.018. In the case of TTTATTCTAT, the switch fluorescence ratio amounted to 1.02 ± 0.011.

For the sequence TTTATTGAGT, the switch fluorescence ratio came to 0.978 ± 0.048. With TTTATTGGAA the figure was 0.9858 ± 0.0091; with TTTATTGTGG, 0.9934 ± 0.0071.

TTTATTTATG: the switch fluorescence ratio was 1.007 ± 0.0065.

In the case of TTTATTTATT, the switch fluorescence ratio stood at 0.998 ± 0.021.

Consider TTTATTTCCA, for which the switch fluorescence ratio was found to be 0.996 ± 0.03.

For TTTATTTGCT, the switch fluorescence ratio was 0.9809 ± 0.0098. In the case of TTTATTTGTT, the switch fluorescence ratio amounted to 1 ± 0.021. With TTTATTTTG the figure was 0.95563 ± 0.00051; with TTTATTTTGG, 0.995 ± 0.053; with TTTCAAACCT, 1.57 ± 0.64. On to TTTCAAAGAT, for which the switch fluorescence ratio is 1.22 ± 0.41. As to TTTCAAAGGC, the switch fluorescence ratio is 1.17 ± 0.2.

As for TTTCAAATGG, the switch fluorescence ratio stood at 0.975 ± 0.028.

Turning to TTTCAACTAC, the switch fluorescence ratio was 1.25 ± 0.23. With TTTCAAGATT, the switch fluorescence ratio worked out at 0.998 ± 0.015. Under TTTCAAGGGA stands 0.9904 ± 0.0048; under TTTCAATTTG, 1.04 ± 0.049; under TTTCACGCAA, 3.98 ± 1.1. Under TTTCACTTTT stands 0.991 ± 0.032; under TTTCAGAAGG, 1.01 ± 0.023. As to TTTCAGACAG, the switch fluorescence ratio worked out at 0.9921 ± 0.0014. As to TTTCAGCTGG, the switch fluorescence ratio came to 0.997 ± 0.027. Under TTTCAGGTAA stands 0.988 ± 0.017; under TTTCAGGTCG, 1.02 ± 0.088. With TTTCAGGTTG the figure was 0.982 ± 0.041. Under TTTCAGTGGT stands 0.986 ± 0.024; under TTTCAGTGTT, 1.05 ± 0.099; under TTTCAGTTTC, 1.02 ± 0.043. As for TTTCATACCT, the switch fluorescence ratio worked out at 1.23 ± 0.14. Under TTTCATAGCA stands 1.283 ± 0.012. In the case of TTTCATATGA, the switch fluorescence ratio worked out at 1 ± 0.0082. Under TTTCATCGCC stands 1.01 ± 0.012. Under TTTCATCTTG stands 0.9706 ± 0.0034; under TTTCATGAAT, 0.987 ± 0.0027. With TTTCATGGTG the figure was 1.0484 ± 0.00021. For the sequence TTTCATGTTA, the switch fluorescence ratio was determined as 0.987 ± 0.0084. With TTTCATTAGT, the switch fluorescence ratio worked out at 0.99 ± 0.045. TTTCATTATT: the switch fluorescence ratio stood at 1.02 ± 0.02. Under TTTCATTCTT stands 1 ± 0.033; under TTTCATTGGC, 0.986 ± 0.028; under TTTCATTTGT, 1.02 ± 0.075. Under TTTCCAATCT stands 1.08 ± 0.13. Take TTTCCATATT: the switch fluorescence ratio was determined as 0.984 ± 0.019.

Consider TTTCCCATTT, for which the switch fluorescence ratio is 1 ± 0.064. For the sequence TTTCCCGGGT, the switch fluorescence ratio stood at 1.0123 ± 0.00051. With TTTCCCTCGT the figure was 1.16 ± 0.17; with TTTCCGACGT, 1.46 ± 0.62. As to TTTCCGGGTG, the switch fluorescence ratio was found to be 2.5 ± 1.1. TTTCCGTGAG: the switch fluorescence ratio was 1.63 ± 0.98. Regarding TTTCCTAGTT, the switch fluorescence ratio turned out to be 1.032 ± 0.0028. On to TTTCCTGTGT, for which the switch fluorescence ratio is 1.01 ± 0.017.

(Values after the supplement of paper PMC10126150.)
